Patent publication US20230242624A1 (NEURIMMUNE, published 2023)
Changes are numbered by the printed parent chain. Values joined by “and” are separate entries in the source; they are usually repeats but may differ in a detail not shown here. Identical values can stand only once.

T1: MERS-CoV Spike protein fragment (RBD, aa 367-606, His tag) (MERS-CoV, UniProt K9N5Q8 367-606)
T1 sequence: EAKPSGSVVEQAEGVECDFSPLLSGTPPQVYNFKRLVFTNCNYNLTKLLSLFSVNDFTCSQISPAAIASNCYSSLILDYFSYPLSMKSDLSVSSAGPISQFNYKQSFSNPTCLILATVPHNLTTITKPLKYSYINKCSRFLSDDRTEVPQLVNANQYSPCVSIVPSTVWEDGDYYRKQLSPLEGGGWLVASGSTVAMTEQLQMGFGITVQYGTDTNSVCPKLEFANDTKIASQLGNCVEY

B1: NI-607.429_B9 (antibody, V domains shown)
VH: EVQLVESGGGLVQPGGSLRLSCAASGFTFSSYWMSWVRQAPGKGLEWVANIKQDGSEKYYVDSVKGRFTISRDNAKNSLYLQMNSLRAEDTAVYYCASLFWRRGSFDPWGQGTLVTVSS
VL: QSVLTQPHSVSESPGKTVTISCTRSTGSIASNYVQWYQQRPGSAPTTVIYEDNQRPSGVPDRFSGSIDSSSNSASLTISGLKTEDEADYYCQSYDTSSYWVFGGGTKLTVL
B2: NI-607.532_F3 (antibody, V domains shown)
VH: EVQLVQSGAEVKKPGESLKISCKGFGYIFSNDWIGWVRQKPGKGLEWMGIIYPGDSDTRYSPSFRGQVTISADKSVSTAYLQWDSLKASDTAVYYCTRPRYTTMIVGSNPFDVWGQGTTVTVSS
VL: QSVLTQPPSVSGAPGQRVTISCTGSSSNIGGGYDVHWYQKLPGTAPKLLIFDNDNRPSGVPDRFSGSKSDTSASLTITGLQAEDEADYFCQSYDSSLSGSGVVFGGGTKLTVL
B3: NI-607.532_D3 (antibody, V domains shown)
VH: EVQLVQSGAEVKRPGASVKVSCKASGYHFTDYYIHWVRQAPGQGLEWMGWINPNSGGTNYAQKFQGRVTMTRDTSISTAYMELSRLRSDDTAVYYCARVYYYDSSSSADYWGQGTLVTVSS
VL: not shown
B4: NI-607.429_E4 (antibody, V domains shown)
VH: QVQLVESGGGLVQPGGSLRLSCAASGFTVSSNYMSWVRQAPGKGLEWVSVIYSGGSTFYADSVKGRFTISRDNSKNTLYLQMNSLRAEDTAVYYCARDLQESGMDVWGQGTTVTVSS
VL: DIQLTQSPSSVSASVGDRVTITCRASQGISSWLAWYQQKPGKAPKLLIYAASSLQSGVPSRFSGSGSGTDFTLTISSLQPEDFATYYCQQANSFPTFGQGTRLEIK
B5: NI-607.532_C11 (antibody, V domains shown)
VH: B4 VH with V12I, F58Y, Y79F, E101Y, S102Y
VL: DIQMTQSPSFLSASVGDRVTITCRASQGISSYLAWYQQKPGKAPKLLIYAASTLQSGVPSRFSGSGSGTEFTLTISSLQPEDFATYYCQQLDSYPPRDTFGQGTKVEIK
B6: NI-607.426_F11 (antibody, V domains shown)
VH: QVQLVESGGGLVQPGGSLRLSCAASGFTFSSYWMSWVRQAPGKGLEWVANIKQDGSEKYYVDSVKGRFTISRDNAKNSLYLQMNSLRAEDTAVYYCARGLVGQWLGVDYWGQGTLVTVSS
VL: QSVLTQPHSVSESPGKTVTISCTGSSGSIASNYVQWYQQRPGSAPTTVIYEDNQRPSGVPDRFSGSIDSSSNSASLTISGLKTEDEADYYCQSYDSSNWVFGGGTKLTVL
B7: NI-607.529_B9 (antibody, V domains shown)
VH: QVQLQESGPGLVKPSETLSLTCTVSGGSISSSSYYWGWIRQPPGKGLEWIGNIYYSGSTYYNPSLKSRVTISVDTSKNQFSLKLNSVTAADTAVYFCARLLWLRGSYYWGQGTLVTVSS
VL: B6 VL with Q1S, S2Y, V3E
B8: NI-607.532_F9 (antibody, V domains shown)
VH: EVQLVESGGNLIQPGGSLRLSCAASGFTVSSNYMSWVRQAPGKGLEWVSVIYSGGSTYYADSVKGRFTISRDNSRNTLYLQMNSLRAEDTAVYFCARDRVVRGVRGNGMDVWGQGTTVTVSS
VL: AIRMTQSPSSLSASVGDRVTITCQASQDINIYLNWYQQRPGKAPKLLIYDASNLETGVPSRFSGSGSGTDFTFTISSLQPEDIATYYCHQYDNLPRTFGQGTKVDIK
B9: NI-607.274_B7 (antibody, V domains shown)
VH: QVQLVESGGGRVQPGRSLRLSCAASGFTFSTHGMHWVRQVPGKGLDWITGITYDGSDQFYADSVKGRFTISRDNSKNMLYLQMNSLRAEDTAVYFCAKDLEWLTNYLDHWGQGTLVTVSS
VL: DVVMTQSPGTLSVSPGERATLSCRASQNINYNLAWYQQKPGQAPRLLIFDASTRATGIPARFTGSGSGTEFTLTISSLQSEDFAVYYCQQSNAWLTFGGGTKVEIK
B10: NI-607.427_C5 (antibody, V domains shown)
VH: QVQLVQSGAEVKKPGASVKVSCKASGYTFTSYGISWVRQAPGQGLEWMGWISAYNGNTNYAQKLQGRVTMTTDTSTSTAYMELRSLRSDDTAVYYCARDNRAGWDQLDYWGQGTLVTVSS
VL: not shown
B11: NI-607.532_D3 IgG4 (antibody, V domains shown)
VH: B3 VH
VL: not shown
B12: NI-607.429_E4 IgG4 (antibody, V domains shown)
VH: B4 VH
VL: B4 VL

These binders were tested against SARS-CoV-2 Spike (S) protein on vesicular stomatitis virus (VSV) pseudoviruses (SARS-CoV-2, UniProt P0DTC2 14-1273) (assay: cell-based or functional assay).

Point of comparison: B4, “IC50, pseudovirus entry assay (luciferase, HEK 293T-ACE2 cells)” value 0.035 µg/mL. Against it:
- B1 — 200-fold higher, 7.1 µg/mL
- B2 — 330-fold higher, 11.7 µg/mL
- B3 — 60-fold higher, 2.1 µg/mL
- B5 — 2.5-fold higher, 0.0872 µg/mL
- B6 — higher, > 100 µg/mL
- B7 — 54-fold higher, 1.9 µg/mL
- B8 — 10-fold higher, 0.364 µg/mL
- B9 — higher, > 100 µg/mL
- B10 — higher, > 100 µg/mL

The binders below were run against T2, BSA (Sigma-Aldrich) (bovine, UniProt P02769 25-607) (assay: direct ELISA on coated BSA).
T2 construct: also called bovine serum albumin; BSA control

B1: no binding (tested: 400 nM).
B3: no binding (tested: 400 nM).
B4: no binding (tested: 400 nM).
B5: no binding (tested: 400 nM).
B6: no binding (tested: 400 nM).
B7: no binding (tested: 400 nM).
B9: no binding (tested: 400 nM).
B10: no binding (tested: 400 nM).

Each binder was assayed against T3, SARS-CoV-2-S1 (RBD)-His protein (Trenzyme) (SARS-CoV-2, UniProt P0DTC2 319-541) (assay: direct ELISA on coated RBD-His).

Point of comparison: B2, EC50 0.019 nM. Against it:
- B1 — within 1.5-fold, 0.014 nM
- B3 — 3.9-fold lower, 0.0049 nM
- B4 — 2.2-fold lower, 0.0086 nM
- B5 — within 1.5-fold, 0.013 nM
- B6 — within 1.5-fold, 0.017 nM
- B7 — 1.8-fold higher, 0.034 nM
- B8 — 7.6-fold lower, 0.0025 nM
- B9 — within 1.5-fold, 0.021 nM
- B10 — within 1.5-fold, 0.014 nM

These binders were tested against T3, SARS-CoV-2-S1 (RBD)-His protein … (assay: competition ELISA, RBD binding to coated ACE2).

B3 was tested, and the IC50 was ~0.457 µg/mL and ~3 nM.
For B11, the IC50 was ~0.457 µg/mL and ~3 nM.
In the case of B4, the IC50 is reported as ~0.345 µg/mL and ~2.3 nM.
B12 was tested, and the IC50 was ~0.699 µg/mL and ~4.65 nM.
For B5, the IC50 was ~1.12 µg/mL and ~7.44 nM.
For B8, the IC50 was ~0.668 µg/mL and ~4.4 nM.
With B10 the IC50 was ~2.15 µg/mL and ~14.3 nM.

The binders below were run against T3, SARS-CoV-2-S1 (RBD)-His protein … (assay: iQue flow cytometry, antigen-coated beads).

Point of comparison: B1, EC50 1.87 nM. Against it:
- B2 — 1.6-fold lower, 1.2 nM
- B3 — 1.9-fold lower, 1 nM
- B4 — within 1.5-fold, 1.9 nM
- B5 — within 1.5-fold, 2.4 nM
- B6 — 2.1-fold lower, 0.89 nM
- B7 — 1.9-fold lower, 1 nM
- B8 — 1.8-fold higher, 3.3 nM
- B9 — 2.8-fold lower, 0.67 nM
- B10 — 1.7-fold higher, 3.2 nM

Each binder was assayed against recombinant SARS-CoV Spike protein (RBD, His tag) (SARS-CoV, UniProt P59594 306-527) (assay: iQue flow cytometry, antigen-coated beads).

Point of comparison: B8, EC50 1000 nM. Against it:
- B2 — 770-fold lower, 1.3 nM
- B3 — the same, 1000 nM
- B7 — 50-fold lower, 20 nM
- B10 — 330-fold lower, 3 nM

The binders below were run against T1, MERS-CoV Spike protein fragment (RBD, …) (assay: iQue flow cytometry, antigen-coated beads).

Point of comparison: B8, EC50 1000 nM. Against it:
- B1 — 1.7-fold lower, 600 nM
- B2 — the same, 1000 nM
- B3 — the same, 1000 nM
- B4 — 5-fold lower, 200 nM
- B5 — the same, 1000 nM
- B6 — the same, 1000 nM
- B7 — 3.3-fold lower, 300 nM
- B9 — within 1.5-fold, 900 nM
- B10 — 1.7-fold lower, 600 nM

Molecular target: T3, SARS-CoV-2-S1 (RBD)-His protein …
Assay: competition ELISA, RBD binding to coated ACE2
Remark: another data set of the same source

Point of comparison: B5, IC50 0.826 nM. Against it:
- B1 — 11-fold lower, 0.074 nM
- B2 — 2.3-fold lower, 0.353 nM
- B3 — within 1.5-fold, 0.917 nM
- B4 — 3-fold lower, 0.275 nM
- B6 — within 1.5-fold, 1.14 nM
- B7 — 7.1-fold lower, 0.116 nM
- B8 — within 1.5-fold, 0.775 nM
- B9 — 9.4-fold higher, 7.8 nM
- B10 — 3.5-fold higher, 2.88 nM
